{"source": "patent US6881719B2", "about": "“β-turn peptidomimetic cyclic compounds” (McGill University, priority 2000, dated 2005)", "molecules": {"B1": {"name": "Neurotrophin-3 (NT-3) (ligand, UniProt P20783 139-257, looked up, species assumed)", "Neurotrophin-3": "YAEHKSHRGEYSVCDSESLWVTDKSSAIDIRGHQVTVLGEIKTGNSPVKQYFYETRCKEARPVKNGCRGIDDKHWNSQCKTSQTYVRALTSENNKLVGWRWIRIDTSCVCALSRKIGRT"}}, "key": {"[1]": {"molecular_target": "T1, NIH3T3 fibroblasts expressing TrkC (Homo sapiens, UniProt Q16288)", "T1 construct": "expressed in transfected cells; host or cells: NIH3T3 fibroblasts", "T1 sequence (Q16288 32-839)": "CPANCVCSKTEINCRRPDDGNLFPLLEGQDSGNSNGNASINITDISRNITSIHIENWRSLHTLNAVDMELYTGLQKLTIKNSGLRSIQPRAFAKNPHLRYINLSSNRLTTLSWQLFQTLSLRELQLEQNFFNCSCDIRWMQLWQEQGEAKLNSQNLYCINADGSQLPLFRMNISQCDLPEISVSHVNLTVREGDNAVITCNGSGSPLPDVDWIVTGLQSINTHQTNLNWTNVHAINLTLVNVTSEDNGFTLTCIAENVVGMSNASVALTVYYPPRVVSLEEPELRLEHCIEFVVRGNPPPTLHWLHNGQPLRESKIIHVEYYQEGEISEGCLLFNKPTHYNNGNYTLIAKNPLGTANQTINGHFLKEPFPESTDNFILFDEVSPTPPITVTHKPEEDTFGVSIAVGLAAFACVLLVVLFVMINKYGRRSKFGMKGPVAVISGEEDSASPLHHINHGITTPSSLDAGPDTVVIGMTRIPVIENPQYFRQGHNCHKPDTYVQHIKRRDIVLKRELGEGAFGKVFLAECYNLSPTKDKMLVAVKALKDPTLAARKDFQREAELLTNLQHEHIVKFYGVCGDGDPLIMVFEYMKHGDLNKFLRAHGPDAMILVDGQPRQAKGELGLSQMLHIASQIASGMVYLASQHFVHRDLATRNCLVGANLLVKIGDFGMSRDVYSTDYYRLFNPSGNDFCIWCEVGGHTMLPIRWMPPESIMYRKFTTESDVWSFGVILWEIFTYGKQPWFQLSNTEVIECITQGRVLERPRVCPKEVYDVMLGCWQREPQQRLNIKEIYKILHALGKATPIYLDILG", "experiment": "Cell survival (MTT), NIH-TrkC", "assay_type": "cell-based", "conditions": "72 hours", "description": "(§1) The 4-3.6 cells are B104 cells stably transfected with human trkA cDNA, and express equal levels of p75 and TrkA (TrkA+ p75+). For screening agents that activate or antagonize TrkC receptors, NIH3T3 fibroblasts were stably transfected with human TrkC cDNA. These cells respond to the ligand NT-3. For screening agents that activate or antagonize TrkA receptors, NIH3T3 fibroblasts were stably transfected with human TrkA cDNA. These cells respond to the ligand NGF.\n(§2) Cell lines: 5,000 cells/well in protein-free media (PFHM-II, GIBCO, Toronto) containing 0.2% bovine serum albumin (BSA) (Crystalline fraction V, Sigma, St. Louis, Mo.) were seeded in 96 well plates (Falcon, Mississauga, Ontario). The cultures were untreated, or treated with the indicated test or control ligands. Cell viability was quantitated using the MTT assay after 56-72 hours of culture. […] The OD of untreated cells were subtracted. The higher optical density of untreated primary cultures is likely due to cellular heterogeneity and to endogenous production of limiting amounts of growth factors."}, "[2]": {"molecular_target": "T2, NIH3T3 fibroblasts expressing TrkA (Homo sapiens, UniProt P04629)", "T2 construct": "expressed in transfected cells; host or cells: NIH3T3 fibroblasts", "T2 sequence (P04629 33-796)": "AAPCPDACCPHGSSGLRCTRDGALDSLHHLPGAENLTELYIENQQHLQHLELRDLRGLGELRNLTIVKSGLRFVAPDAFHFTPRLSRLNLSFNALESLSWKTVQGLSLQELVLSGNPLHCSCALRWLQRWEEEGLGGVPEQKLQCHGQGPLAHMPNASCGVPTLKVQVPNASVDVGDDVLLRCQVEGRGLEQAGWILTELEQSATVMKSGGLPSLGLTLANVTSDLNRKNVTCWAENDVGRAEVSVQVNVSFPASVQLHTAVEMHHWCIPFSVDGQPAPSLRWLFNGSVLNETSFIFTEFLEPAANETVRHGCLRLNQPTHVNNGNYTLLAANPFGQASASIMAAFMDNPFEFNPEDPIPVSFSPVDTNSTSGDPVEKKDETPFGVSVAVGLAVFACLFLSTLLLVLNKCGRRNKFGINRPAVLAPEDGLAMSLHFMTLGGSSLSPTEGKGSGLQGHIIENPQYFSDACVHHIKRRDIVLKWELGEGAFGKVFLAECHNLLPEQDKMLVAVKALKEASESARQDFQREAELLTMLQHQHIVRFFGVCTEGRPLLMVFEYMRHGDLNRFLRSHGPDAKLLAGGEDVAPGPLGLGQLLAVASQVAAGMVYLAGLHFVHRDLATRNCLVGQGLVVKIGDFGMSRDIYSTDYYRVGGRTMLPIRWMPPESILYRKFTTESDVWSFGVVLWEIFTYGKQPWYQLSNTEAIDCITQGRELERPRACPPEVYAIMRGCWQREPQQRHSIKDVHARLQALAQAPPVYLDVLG", "experiment": "Cell survival (MTT), NIH-TrkA", "assay_type": "cell-based", "conditions": "72 hours", "description": "as §1, with “These cells respond to the ligand NT-3.” left out, “cDNA.” for “cDNA. These cells respond to the ligand NGF.”\nas §2, with “subtracted.” for “subtracted. The higher optical density of untreated primary cultures is likely due to cellular heterogeneity and to endogenous production of limiting amounts of growth factors.”"}, "[3]": {"system": "wild type NIH3T3 fibroblasts", "experiment": "Cell survival (MTT), NIH wt", "assay_type": "cell-based", "conditions": "72 hours", "description": "as §1, §2"}, "[4]": {"molecular_target": "p75 NGF receptor on B104 rat neuroblastoma cells and 4-3.6 cells (rat) (UniProt P07174)", "sequence (P07174 30-425)": "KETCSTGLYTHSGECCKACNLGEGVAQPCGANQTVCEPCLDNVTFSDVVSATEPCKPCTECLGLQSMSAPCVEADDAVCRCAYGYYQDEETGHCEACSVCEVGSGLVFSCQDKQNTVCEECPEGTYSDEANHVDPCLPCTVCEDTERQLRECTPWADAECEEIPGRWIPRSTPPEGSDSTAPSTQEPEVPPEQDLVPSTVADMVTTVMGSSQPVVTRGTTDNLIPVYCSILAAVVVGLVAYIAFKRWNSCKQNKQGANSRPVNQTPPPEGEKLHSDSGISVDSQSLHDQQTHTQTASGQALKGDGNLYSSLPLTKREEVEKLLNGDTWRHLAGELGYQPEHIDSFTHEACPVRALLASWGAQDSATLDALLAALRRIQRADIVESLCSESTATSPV", "experiment": "FACScan, 4-3.6 cells, mAb 1 nM, no competitor"}, "[5]": {"molecular_target": "human TrkC expressed on transfected NIH3T3 fibroblasts (human) (UniProt Q16288)", "sequence (Q16288 32-839)": "as the sequence (Q16288 32-839) above", "experiment": "cell-based or functional assay"}, "[6]": {"molecular_target": "TrkA on primary rat embryonic neurons (DRG and septal cultures) (rat) (UniProt P35739)", "sequence (P35739 33-799)": "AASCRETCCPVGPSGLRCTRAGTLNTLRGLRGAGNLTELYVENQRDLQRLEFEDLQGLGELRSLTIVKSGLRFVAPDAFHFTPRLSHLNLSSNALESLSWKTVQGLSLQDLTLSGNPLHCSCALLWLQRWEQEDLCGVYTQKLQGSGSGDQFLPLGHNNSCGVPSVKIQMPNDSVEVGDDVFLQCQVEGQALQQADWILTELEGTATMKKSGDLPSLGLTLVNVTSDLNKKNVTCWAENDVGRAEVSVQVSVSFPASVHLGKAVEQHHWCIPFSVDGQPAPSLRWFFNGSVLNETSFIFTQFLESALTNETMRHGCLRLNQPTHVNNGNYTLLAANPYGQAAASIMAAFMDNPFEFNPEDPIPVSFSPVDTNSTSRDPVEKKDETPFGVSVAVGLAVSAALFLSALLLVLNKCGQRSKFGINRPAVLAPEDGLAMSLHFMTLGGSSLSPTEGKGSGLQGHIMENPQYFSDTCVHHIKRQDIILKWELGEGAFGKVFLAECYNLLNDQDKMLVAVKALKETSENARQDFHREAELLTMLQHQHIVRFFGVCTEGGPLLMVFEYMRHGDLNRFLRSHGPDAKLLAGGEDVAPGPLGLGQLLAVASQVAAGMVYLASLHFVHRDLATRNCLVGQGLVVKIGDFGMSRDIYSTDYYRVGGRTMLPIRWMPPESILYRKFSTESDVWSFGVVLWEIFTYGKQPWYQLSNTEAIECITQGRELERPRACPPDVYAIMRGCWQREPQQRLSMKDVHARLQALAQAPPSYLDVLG", "experiment": "cell-based or functional assay"}, "[7]": {"molecular_target": "human TrkA expressed on transfected cells (4-3.6 cells; NIH3T3-TrkA cells) (human) (UniProt P04629)", "sequence (P04629 33-796)": "as the sequence (P04629 33-796) above", "experiment": "cell-based or functional assay"}, "[8]": {"molecular_target": "human TrkC expressed on transfected NIH3T3 fibroblasts (human) (UniProt Q16288)", "experiment": "cell-based or functional assay", "remark": "listed apart in the source"}, "[9]": {"molecular_target": "TrkA on primary rat embryonic neurons (DRG and septal cultures) (rat, UniProt P35739 33-799)", "sequence (P35739 33-799)": "as the sequence (P35739 33-799) above", "experiment": "cell-based or functional assay"}}, "note": "Where “and” joins values, the source holds several entries; their conditions need not be identical. Equal entries are not always repeated. No end group written: not given here.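 For NIH-TrkA % Protection in this document: 100% equals survival with optimal NGF at 1 nM.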", "data": [{"molecule": "NT-3: Neurotrophin-3, prefers binding to TrkC receptors", "values": [{"measurement": "NIH-TrkC % Protection", "setting": "[1]; 10 pM NT-3", "result": "29±1", "unit": "%"}, {"measurement": "NIH-TrkC % Protection", "setting": "[1]; 1 nM NT-3", "result": "100 ± 2", "unit": "%"}, {"measurement": "NIH-TrkA % Protection", "setting": "[2]; 10 pM NT-3", "result": "3 ± 2", "unit": "%"}, {"measurement": "NIH-TrkA % Protection", "setting": "[2]; 1 nM NT-3", "result": "17 ± 3", "unit": "%"}, {"measurement": "NIH wt % Protection", "setting": "[3]; 10 pM NT-3", "result": "1 ± 4", "unit": "%"}, {"measurement": "NIH wt % Protection", "setting": "[3]; 1 nM NT-3", "result": "−2 ± 5", "unit": "%"}]}, {"molecule": "anti-p75 monoclonal antibody MC192", "values": [{"measurement": "% Maximal binding", "setting": "[4]", "result": 100, "unit": "%"}]}, {"molecule": "CC(O)[C@@H]1NC(=O)c2cc([N+](=O)[O-])cc(I)c2NCCC(C(N)=O)NC(=O)CNC1=O", "note": "(some centres unmarked) [P42]", "values": [{"measurement": "NIH-TrkA % Protection", "setting": "[2]; agent 10 μM + 10 pM NGF", "result": "9 ± 4", "unit": "%"}, {"measurement": "NIH-TrkA % Protection", "setting": "[2]; agent 10 μM + 1 nM NGF", "result": "68% and 68 ± 5%"}, {"measurement": "NIH-TrkA % Protection", "setting": "[2]; agent 10 μM alone", "result": "5 ± 2", "unit": "%"}, {"measurement": "NIH wt % Protection", "setting": "[3]; agent 10 μM alone", "result": "0 ± 3", "unit": "%"}]}, {"molecule": "nerve growth factor (NGF) (ligand)", "values": [{"measurement": "% Protection (MTT, NIH-TrkC), 10 pM NGF", "setting": "[5]", "result": 2, "unit": "%"}, {"measurement": "% Protection (MTT, NIH-TrkC), 1 nM NGF", "setting": "[5]", "result": 5, "unit": "%"}, {"measurement": "% Protection (MTT, rat DRG neurons), NGF 20 pM", "setting": "[6]", "result": 9, "unit": "%"}, {"measurement": "% Protection (MTT, rat DRG neurons), NGF 500 pM", "setting": "[6]", "result": 68, "unit": "%"}, {"measurement": "ChAT Activity (rat septal neurons), 10 pM NGF (pmol Ach/min/well)", "setting": "[6]", "result": 0.42}, {"measurement": "ChAT Activity (rat septal neurons), 400 pM NGF (pmol Ach/min/well)", "setting": "[6]", "result": 0.72}, {"measurement": "Optical Density (MTT survival, rat DRG neurons), NGF 20 pM", "setting": "[6]", "result": 316, "unit": "OD"}, {"measurement": "Optical Density (MTT survival, rat DRG neurons), NGF 500 pM", "setting": "[6]", "result": 0.535, "unit": "OD"}, {"measurement": "Optical Density (MTT survival, rat DRG neurons), NGF 1 nM", "setting": "[6]", "result": 823, "unit": "OD"}]}, {"molecule": "B1", "values": [{"measurement": "% Protection (MTT, NIH-TrkA), 10 pM NT-3", "setting": "[7]", "result": 3, "unit": "%"}, {"measurement": "% Protection (MTT, NIH-TrkC), 10 pM NT-3", "setting": "[8]", "result": 29, "unit": "%"}]}, {"molecule": "Glu-Lys-Cys (also: further groups not given here)", "note": "[C59 (EKCys), inactive analog of D3]", "values": [{"measurement": "ChAT Fold Increase, 20 µM C59 control", "setting": "[9]", "result": 1, "unit": "fold"}]}]}
